Laboratory results published in the supplement of paper PMC11246515.
± gives the standard deviation of the averaged measurements.

Assay: total protein half-life in vivo (active degradation + dilution); higher = more stable protein
[1] = E. coli NCM3722 delta-clpP delta-lon delta-hslV, growth: N-lim chemostat, doubling time 6 h
[2] = E. coli NCM3722 delta-clpP, growth: N-lim chemostat, doubling time 6 h
[3] = E. coli NCM3722 delta-hslV, growth: N-lim chemostat, doubling time 6 h
[4] = E. coli NCM3722 delta-smpB, growth: N-lim chemostat, doubling time 6 h
[5] = wild type E. coli NCM3722, growth: C-lim chemostat, doubling time 6 h
[6] = wild type E. coli NCM3722, growth: C-lim chemostat, doubling time 12 h
[7] = wild type E. coli NCM3722, growth: N-lim chemostat, doubling time 12 h
[8] = wild type E. coli NCM3722, growth: P-lim chemostat, doubling time 6 h
[9] = wild type E. coli NCM3722, growth: P-lim chemostat, doubling time 12 h
[10] = wild type E. coli NCM3722, growth: C-lim chemostat, doubling time 3 h
[11] = wild type E. coli NCM3722, growth: N-lim chemostat, doubling time 6 h
[12] = E. coli NCM3722 delta-lon, growth: N-lim chemostat, doubling time 6 h

Sequence	total protein half-life in vivo [1] [h]	total protein half-life in vivo [2] [h]	total protein half-life in vivo [3] [h]	total protein half-life in vivo [4] [h]	total protein half-life in vivo [5] [h]	total protein half-life in vivo [6] [h]	total protein half-life in vivo [7] [h]	total protein half-life in vivo [8] [h]	total protein half-life in vivo [9] [h]	total protein half-life in vivo [10] [h]	total protein half-life in vivo [11] [h]	total protein half-life in vivo [12] [h]
MKKSTLALVVMGIVASASVQAAEIYNKDGNKLDVYGKVKAMHYMSDNASKDGDQSYIRFGFKGETQINDQLTGYGRWEAEFAGNKAESDTAQQKTRLAFAGLKYKDLGSFDYGRNLGALYDVEAWTDMFPEFGGDSSAQTDNFMTKRASGLATYRNTDFFGVIDGLNLTLQYQGKNENRDVKKQNGDGFGTSLTYDFGGSDFAISGAYTNSDRTNEQNLQSRGTGKRAEAWATGLKYDANNIYLATFYSETRKMTPITGGFANKTQNFEAVAQYQFDFGLRPSLGYVLSKGKDIEGIGDEDLVNYIDVGATYYFNKNMSAFVDYKINQLDSDNKLNINNDDIVAVGMTYQF	6.3	> 8	6.65 ± 0.12	6.18 ± 0.13	5.98 ± 0.22	12.6 ± 1.1	11 ± 2.1	6.41 ± 0.31	13.9 ± 1.1	–	–	–
MKKTAAIISACMLTFALSACSGSNYVMHTNDGRTIVSDGKPQTDNDTGMISYKDANGNKQQINRTDVKEMVELDQ	5.09 ± 0.4	5.11 ± 0.78	5.48 ± 0.12	5.68 ± 1.2	5.25 ± 0.68	10.3 ± 0.96	11.3	4.83 ± 0.12	11.1 ± 0.28	3.35 ± 0.3	5.312 ± 0.043	–
MKKTTLALSALALSLGLALSPLSATAAETSSATTAQQMPSLAPMLEKVMPSVVSINVEGSTTVNTPRMPRNFQQFFGDDSPFCQEGSPFQSSPFCQGGQGGNGGGQQQKFMALGSGVIIDADKGYVVTNNHVVDNATVIKVQLSDGRKFDAKMVGKDPRSDIALIQIQNPKNLTAIKMADSDALRVGDYTVAIGNPFGLGETVTSGIVSALGRSGLNAENYENFIQTDAAINRGNSGGALVNLNGELIGINTAILAPDGGNIGIGFAIPSNMVKNLTSQMVEYGQVKRGELGIMGTELNSELAKAMKVDAQRGAFVSQVLPNSSAAKAGIKAGDVITSLNGKPISSFAALRAQVGTMPVGSKLTLGLLRDGKQVNVNLELQQSSQNQVDSSSIFNGIEGAEMSNKGKDQGVVVNNVKTGTPAAQIGLKKGDVIIGANQQAVKNIAELRKVLDSKPSVLALNIQRGDSTIYLLMQ [P0C0V0]	5.66 ± 0.5	5.71 ± 0.21	6.05 ± 0.44	5.87 ± 0.45	5.88 ± 0.28	10.9 ± 0.37	11.5 ± 0.38	5.75 ± 0.2	11.4 ± 0.4	2.97 ± 0.12	5.86 ± 0.23	5.85 ± 0.21
MKKVAIVGLGWLGMPLAMSLSARGWQVTGSKTTQDGVEAARMSGIDSYLLRMEPELVCDSDDLDALMDADALVITLPARRSGPGDEFYLQAVQELVDSALAHRIPRIIFTSSTSVYGDAQGTVKETTPRNPVTNSGRVLEELEDWLHNLPGTSVDILRLAGLVGPGRHPGRFFAGKTAPDGEHGVNLVHLEDVIGAITLLLQAPKGGHIYNICAPAHPARNVFYPQMARLLGLEPPQFRNSLDSGKGKIIDGSRICNELGFEYQYPDPLVMPLE [P0AD12]	4.79 ± 0.29	4.52 ± 0.45	4.63 ± 0.4	4.5 ± 0.096	5.019 ± 0.0077	8.76 ± 1.2	7.41 ± 0.52	5.61 ± 0.32	11.1 ± 0.28	3.06 ± 0.16	4.35 ± 0.44	5.07 ± 0.57
MKKVLIAALIAGFSLSATAAETIRFATEASYPPFESIDANNQIVGFDVDLAQALCKEIDATCTFSNQAFDSLIPSLKFRRVEAVMAGMDITPEREKQVLFTTPYYDNSALFVGQQGKYTSVDQLKGKKVGVQNGTTHQKFIMDKHPEITTVPYDSYQNAKLDLQNGRIDGVFGDTAVVTEWLKDNPKLAAVGDKVTDKDYFGTGLGIAVRQGNTELQQKLNTALEKVKKDGTYETIYNKWFQK	5.31 ± 0.27	5.44 ± 0.31	6.55 ± 0.075	6.01 ± 0.43	5.9 ± 0.34	11.55 ± 0.079	12.2 ± 0.92	6.04 ± 0.31	12.2 ± 0.73	3.16 ± 0.44	5.64 ± 0.36	7.11 ± 0.09
MKKVLLIILLLLVVLGIAAGVGVWKVRHLADSKLLIKEETIFTLKPGTGRLALGEQLYADKIINRPRVFQWLLRIEPDLSHFKAGTYRFTPQMTVREMLKLLESGKEAQFPLRLVEGMRLSDYLKQLREAPYIKHTLSDDKYATVAQALELENPEWIEGWFWPDTWMYTANTTDVALLKRAHKKMVKAVDSAWEGRADGLPYKDKNQLVTMASIIEKETAVASERDKVASVFINRLRIGMRLQTDPTVIYGMGERYNGKLSRADLETPTAYNTYTITGLPPGAIATPGADSLKAAAHPAKTPYLYFVADGKGGHTFNTNLASHNKSVQDYLKVLKEKNAQ	6.33 ± 0.68	6.52 ± 1.1	6.8 ± 0.6	6.22 ± 0.74	6.65 ± 0.64	12.7 ± 1.6	12.4 ± 1.7	6 ± 0.25	12 ± 0.45	3.49 ± 0.33	6.34 ± 0.68	6.58 ± 0.69
MKKVTAMLFSMAVGLNAVSMAAKAKASEEQETDVLLIGGGIMSATLGTYLRELEPEWSMTMVERLEGVAQESSNGWNNAGTGHSALMELNYTPQNADGSISIEKAVAINEAFQISRQFWAHQVERGVLRTPRSFINTVPHMSFVWGEDNVNFLRARYAALQQSSLFRGMRYSEDHAQIKEWAPLVMEGRDPQQKVAATRTEIGTDVNYGEITRQLIASLQKKSNFSLQLSSEVRALKRNDDNTWTVTVADLKNGTAQNIRAKFVFIGAGGAALKLLQESGIPEAKDYAGFPVGGQFLVSENPDVVNHHLAKVYGKASVGAPPMSVPHIDTRVLDGKRVVLFGPFATFSTKFLKNGSLWDLMSSTTTSNVMPMMHVGLDNFDLVKYLVSQVMLSEEDRFEALKEYYPQAKKEDWRLWQAGQRVQIIKRDAEKGGVLRLGTEVVSDQQGTIAALLGASPGASTAAPIMLNLLEKVFGDRVSSPQWQATLKAIVPSYGRKLNGDVAATERELQYTSEVLGLNYDKPQAADSTPKPQLKPQPVQKEVADIAL	3.81 ± 0.31	2.29 ± 0.29	1.1 ± 0.013	1.15 ± 0.2	–	–	1.46 ± 0.27	–	–	–	1.19 ± 0.58	0.95
MKKVVTVCPYCASGCKINLVVDNGKIVRAEAAQGKTNQGTLCLKGYYGWDFINDTQILTPRLKTPMIRRQRGGKLEPVSWDEALNYVAERLSAIKEKYGPDAIQTTGSSRGTGNETNYVMQKFARAVIGTNNVDCCARVUHGPSVAGLHQSVGNGAMSNAINEIDNTDLVFVFGYNPADSHPIVANHVINAKRNGAKIIVCDPRKIETARIADMHIALKNGSNIALLNAMGHVIIEENLYDKAFVASRTEGFEEYRKIVEGYTPESVEDITGVSASEIRQAARMYAQAKSAAILWGMGVTQFYQGVETVRSLTSLAMLTGNLGKPHAGVNPVRGQNNVQGACDMGALPDTYPGYQYVKDPANREKFAKAWGVESLPAHTGYRISELPHRAAHGEVRAAYIMGEDPLQTDAELSAVRKAFEDLELVIVQDIFMTKTASAADVILPSTSWGEHEGVFTAADRGFQRFFKAVEPKWDLKTDWQIISEIATRMGYPMHYNNTQEIWDELRHLCPDFYGATYEKMGELGFIQWPCRDTSDADQGTSYLFKEKFDTPNGLAQFFTCDWVAPIDKLTDEYPMVLSTVREVGHYSCRSMTGNCAALAALADEPGYAQINTEDAKRLGIEDEALVWVHSRKGKIITRAQVSDRPNKGAIYMTYQWWIGACNELVTENLSPITKTPEYKYCAVRVEPIADQRAAEQYVIDEYNKLKTRLREAALA	4.17 ± 0.28	–	–	–	–	–	–	–	–	–	–	–
